Tests used:
[1] = In vivo pharmacokinetics in CD1 nu/nu mice; parameters: species or system mouse; details: 10 mg/kg and 5 mg/kg, peptibodies without LE sequences
Protocol: In vivo pharmacokinetics experiments were performed using representative peptibodies without the LE sequences.

CD1 nu/nu mice = assay: In vivo anabolic activity in CD1 nu/nu mouse model
Source text: In Vivo Anabolic Activity of Exemplary Peptibodies
The CD1 nu/nu mouse model (Charles River Laboratories, Massachusetts) was used to determine the in vivo efficacy of the peptibodies of the present invention which included the human Fc region (huFc). This model responded to the inhibitors of the present invention with a rapid anabolic response which was associated with increased dry muscle mass and an increase in myofibrillar proteins but was not associated with accumulation in body water content.
A group of 10 8 week old CD1 nu/nu mice were treated twice weekly or once weekly with dosages of 1 mg/kg, 3 mg/kg and 10 mg/kg (subcutaneous injection). The control group of 10 8 week old CD1 nu/nu mice received a twice weekly (subcutaneous) injection of huFc (vehicle) at 10 mg/kg. The animals were weighed every other day and lean body mass determined by NMR on day 0 and day 13. The animals are then scarified at day 14 and the size of the gastrocnemius muscle determined.
In another example, the 1× mTN8-19-32 peptibody was administered to CD1 nu/nu mice in a biweekly injection of 1 mg/kg, 3 mg/kg, 10 mg/kg, and 30 mg/kg compared with the huFc control (vehicle).
CD1 nu/nu male mice (10 animals per group) were treated with twice weekly injections of 1 mg/kg and 3 mg/kg of 1× mTN8-19-7 and 2× mTN8-19-7 for 35 days, while the control group (10 animals) received twice weekly injections of huFc (3 mg/kg).

myostatin = biological target: T1, myostatin (Homo sapiens, UniProt O14793); assay: C2C12 pMARE-luc cell based myostatin activity assay
T1 construct: To produce mature myostatin, the pooled promyostatin was enzymatically cleaved between the propeptide and mature myostatin C terminal; made in house
T1 sequence (O14793 267-375): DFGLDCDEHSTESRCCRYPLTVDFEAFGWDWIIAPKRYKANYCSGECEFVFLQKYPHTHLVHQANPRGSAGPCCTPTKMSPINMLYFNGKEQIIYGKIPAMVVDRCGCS
Source text: The antagonists including the binding agents described herein can be tested for their ability to bind myostatin and inhibit or block myostatin activity. Any number of assays or animal tests may be used to determine the ability of the agent to inhibit or block myostatin activity. Several assays used for characterizing the peptides and peptibodies of the present invention are described in the Examples below. One assay is the C2C12 pMARE-luc assay which makes use of a myostatin-responsive cell line (C2C12 myoblasts) transfected with a luciferase reporter vector containing myostatin/activin response elements (MARE). Exemplary peptibodies are assayed by pre-incubating a series of peptibody dilutions with myostatin, and then exposing the cells to the incubation mixture. The resulting luciferase activity is determined, and a titration curve is generated from the series of peptibody dilutions. The IC50 (the concentration of peptibody to achieve 50% inhibition of myostatin activity as measured by luciferase activity) was then determined. A second assay described below is a BIAcore® assay to determine the kinetic parameters ka (association rate constant), kd (dissociation rate constant), and KD (dissociation equilibrium constant) for the myostatin binding agents and other antagonists such as antibodies capable of binding myostatin and its receptor. Lower dissociation equilibrium constants (KD, expressed in nM) indicated a greater affinity of the peptibody for myostatin. […] These assays are described in Example 3.
C2C12 Cell Based Myostatin Activity Assay
A myostatin-responsive reporter cell line was generated by transfection of C2C12 myoblast cells (ATCC No: CRL-1772) with a pMARE-luc construct. The pMARE-luc construct was made by cloning twelve repeats of the CAGA sequence, representing the myostatin/activin response elements (Dennler et al. EMBO 17: 3091-3100 (1998)) into a pLuc-MCS reporter vector (Stratagene cat #219087) upstream of the TATA box. The myoblast C2C12 cells naturally express myostatin/activin receptors on its cell surface. When myostatin binds the cell receptors, the Smad pathway is activated, and phosphorylated Smad binds to the response element (Macias-Silva et al. Cell 87:1215 (1996)), resulting in the expression of the luciferase gene. Luciferase activity is then measured using a commercial luciferase reporter assay kit (cat # E4550, Promega, Madison, Wis.) according to manufacturer's protocol. A stable line of C2C12 cells that had been transfected with pMARE-luc (C2C12/pMARE clone #44) was used to measure myostatin activity according to the following procedure.
Equal numbers of the reporter cells (C2C12/pMARE clone #44) were plated into 96 well cultures. A first round screening using two dilutions of peptibodies was performed with the myostatin concentration fixed at 4 nM. Recombinant mature myostatin was preincubated for 2 hours at room temperature with peptibodies at 40 nM and 400 nM respectively. The reporter cell culture was treated with the myostatin with or without peptibodies for six hours. Myostatin activity was measured by determining the luciferase activity in the treated cultures. This assay was used to initially identify peptibody hits that inhibited the myostatin signaling activity in the reporter assay. Subsequently, a nine point titration curve was generated with the myostatin concentration fixed at 4 nM. The myostatin was preincubated with each of the following nine concentrations of peptibodies: […], 0.4 nM, 4 nM, 20 nM, 40 nM, 200 nM, 400 nM, 2 uM and 4 uM for two hours before adding the mixture to the reporter cell culture. The IC50 values were for a number of exemplary peptibodies are provided in Tables III and for affinity matured peptibodies, in Table VIII.

mdx mice = assay: Treatment of aged mdx mice (Duchenne muscular dystrophy model); format: in vivo, mouse; details: 10 mg/kg s.c. every other day, three months, vs huFc
Protocol: Muscular dystrophy is one of those disorders. The mouse model for Duchenne's muscular dystrophy is the Duchenne mdx mouse (Jackson Laboratories, Bar Harbor, Me.). Aged (10 month old) mdx mice were injected with either the peptibody 1× mTN8-19-33 (n=8/group) or with the vehicle huFc protein (N=6/group) for a three month period of time. The dosing schedule was every other day, 10 mg/kg, by subcutaneous injection.

[2] = affinity matured peptibodies, a range of values is given
[3] = pMARE luc cell-based assay, myostatin 4 nM

IC50 (myostatin; [2])	Substance	further results
–	1× mTN8-19-7: 1× affinity-matured peptibody; peptide LADHGQCIRWPWMCPPEGWE	half-life [1]: about 65 hours
2.77 to 3.6 nM	1× mTN8-19-21: 1× affinity-matured peptibody; peptide SEYQGLCTRWPWMCPPQGWK	total body weight (CD1 nu/nu mice; 1× peptibody, 1, 3, 10 mg/kg s.c. twice or once weekly, 14 days, vs huFc control): increase in body weight compared with the control
1.93 to 3.26 nM	1× mTN8-19-22: 1× affinity-matured peptibody; peptide TFSQGHCTRWPWMCPPQGWG	half-life [1]: about 50.2 hours
1.84 to 3.35 nM	1× mTN8-19-32: 1× affinity-matured peptibody; peptide VADHGHCTRWPWMCPPQGWG	total body weight (CD1 nu/nu mice; biweekly injection 1, 3, 10, 30 mg/kg vs huFc control): increase in total body weight; lean body mass (NMR) (CD1 nu/nu mice; biweekly injection 1, 3, 10, 30 mg/kg, day 13 compared with day 0): increase
2.15 to 2.75 nM	1× mTN8-19-33: 1× affinity-matured peptibody; peptide PESQGHCTRWPWMCPPQGWG	body weight (mdx mice): Significant increases in body weight; fat percentage of body weight (mdx mice): decreased; lean body mass to fat mass ratio (NMR) (mdx mice): significantly increased
–	L2: peptibody; peptide MEMLDSLFELLKDMVPISKA	inhibition of myostatin activity in cell-based assay (myostatin): inhibit myostatin activity
–	Linear-20: peptibody; peptide YREMSMLEGLLDVLERLQHY	IC50 (myostatin; [3]): ~11 nM
–	TN12-34: peptibody; peptide AHWCEQGPWRYGNICMAY	IC50 (myostatin; [3]): ~30 nM
1 to 4.4 nM	mTN8-19 con1: affinity-matured peptibody; peptide VATQGQCTRWPWMCPPQGWG	–
7.51 to 34.4 nM	mTN8-19-2: affinity-matured peptibody; peptide YPEQGLCTRWPWMCPPQTLA	–
16.7 nM	mTN8-19-4: affinity-matured peptibody; peptide MITQGQCTRWPWMCPPQPSG	–
3.5 to 7.74 nM	mTN8-19-5: affinity-matured peptibody; peptide AGAQEHCTRWPWMCAPNDWI	–
17.3 nM	mTN8-19-6: affinity-matured peptibody; peptide GVNQGQCTRWRWMCPPNGWE	–
18.8 to 23 nM	mTN8-19-9: affinity-matured peptibody; peptide TQTHAQCTRWPWMCPPQWEG	–
5.25 to 7.4 nM	mTN8-19-10: affinity-matured peptibody; peptide VVTQGHCTLWPWMCPPQRWR	–
28.7 nM	mTN8-19-11: affinity-matured peptibody; peptide IYPHDQCTRWPWMCPPQPYP	–
980 nM	mTN8-19-12: affinity-matured peptibody; peptide SYWQGQCTRWPWMCPPQWRG	–
20 nM	mTN8-19-13: affinity-matured peptibody; peptide MWQQGHCTRWPWMCPPQGWG	–
4.07 to 6.56 nM	mTN8-19-14: affinity-matured peptibody; peptide EFTQWHCTRWPWMCPPQRSQ	–
4.65 nM	mTN8-19-16: affinity-matured peptibody; peptide YQTQGLCTRWPWMCPPQSQR	–
6.58 nM	mTN8-19-23: affinity-matured peptibody; peptide PGAHDHCTRWPWMCPPQSRY	–
1.67 to 2.93 nM	mTN8-19-24: affinity-matured peptibody; peptide VAEEWHCRRWPWMCPPQDWR	–
4.84 to 4.92 nM	mTN8-19-27: affinity-matured peptibody; peptide ADTQGHCTRWPWMCPPQHWF	–
4.39 nM	mTN8-19-28: affinity-matured peptibody; peptide SGPQGHCTRWPWMCAPQGWF	–
6.36 nM	mTN8-19-29: affinity-matured peptibody; peptide TLVQGHCTRWPWMCPPQRWV	–
5.03 to 5.07 nM	mTN8-19-34: affinity-matured peptibody; peptide IPAHGHCTRWPWMCPPQRWR	–
